Test results: publication doi:10.1101/2021.12.06.471393

Target: CRISPR-Lon protease (Sulfurihydrogenibium sp. YO3AOP1)
Experiment: SEC-MALS

| stoichiometry N (CRISPR-T variant per CRISPR-Lon) | stoichiometry N (CRISPR-T per CRISPR-Lon) | Substance |
| --- | --- | --- |
| 1 |  | CRISPR-T A171E (natural protein) |
| 1 |  | CRISPR-T A181E (natural protein) |
| 1 |  | CRISPR-T A194E (natural protein) |
|  | 1 | CRISPR-T protein (natural protein) |
